# Laboratory results taken from IntAct's records for PubMed 34830280.
# B1: Centrosome-associated zinc finger protein Cp190 (Drosophila melanogaster (Fruit fly)), Q24478 (parent)
# chain: MGEVKSVKVDNWGVFFLQKLQNFFNKTDYCDLTLQFRDNSQLKVHRLVLSACTDYFNVLEQTCEIVDDALIMPNEFQADVVVPIVNFMYTGTLEFELKMYGKLLRTAKEMNMTVLLKLLEAHRRTMENVNRQQRPPSPKGIRRRTVGQPSSGLPQQRVLGPSPQSRNVATPIAQRANTQRGSTGNTMSRTSGGSNRSPYGDSSNVKQEPTSPFEQLRKGYNNNKRPAQTSLLSPPSKKPSLEEVKEFAEQQRMRKQIAAEYGDNDPEYDGGMLYDDVHAGDDDDDDMPPQPSTSKQQSPQGTQTQLEHGSTTIILKQDSPSQTPTIIVKDSSNAKLNHTKIIAEVLRQYPHIVKGHKNIKLKIMPNTPAAPTEKSAPATVKPPANQSSATTSPHKKLHVSFKADKSTPLITAQQKAASSQQKSGTSQTTGNQGTGANPPANTAAAQKRRIDSKTMHALIAQGAENTTGPWLCLRCGVNGRPISIPSYRGFRRHLINTHKETIDPALCEHCGWRSVNNRELHFHMYMEHQTKSLLYTFAECALCNQSYRTKGELEAHINEVHTDDNKQQCIYCNKVFEQELQLYRHMKSYHKEQALEDGIIDETDEEFLGSQDEEEEAEGDEEQEPEQTGKVRILSDISLPATSAITVQQAQQEQLQEEDVEQVQQEVKFVGADGNEVELTDEQRKEILSQLNQQQAGATAGGVVMVLSEPEAEHVKQETDEKSLAGTEEEYDDSQIYSELGAADSVESAKKNIADESKESIDNLEWAENLIAESEEQSNKEPKSDKPRDDISEKLKELTGDWTEDENDDDVDDKPATAELASELANKDPEPTVHEEEDDIDLALQSLHKGPEEATEEKASEESVTSADDAVDAVPNINSQPEKMDVDSEAADEKASKAEVQIKKEAELENDQEEFIKEDSPIPHSDSVAELREAVTASEGEDDVHLEADNIRKELLDELIAEAEKPDQEKDIVQSEENATTEALDRSVTDEDDLVPPTQVSTEQMEIDEPAAEKAAENNEDTRTADEKEAVEDKPNQTQDVTTAEKPTLESAKAGDEATSGEAASVDKVKSLISEWGDDDEDEDENGVSAAAKEEL
# partner: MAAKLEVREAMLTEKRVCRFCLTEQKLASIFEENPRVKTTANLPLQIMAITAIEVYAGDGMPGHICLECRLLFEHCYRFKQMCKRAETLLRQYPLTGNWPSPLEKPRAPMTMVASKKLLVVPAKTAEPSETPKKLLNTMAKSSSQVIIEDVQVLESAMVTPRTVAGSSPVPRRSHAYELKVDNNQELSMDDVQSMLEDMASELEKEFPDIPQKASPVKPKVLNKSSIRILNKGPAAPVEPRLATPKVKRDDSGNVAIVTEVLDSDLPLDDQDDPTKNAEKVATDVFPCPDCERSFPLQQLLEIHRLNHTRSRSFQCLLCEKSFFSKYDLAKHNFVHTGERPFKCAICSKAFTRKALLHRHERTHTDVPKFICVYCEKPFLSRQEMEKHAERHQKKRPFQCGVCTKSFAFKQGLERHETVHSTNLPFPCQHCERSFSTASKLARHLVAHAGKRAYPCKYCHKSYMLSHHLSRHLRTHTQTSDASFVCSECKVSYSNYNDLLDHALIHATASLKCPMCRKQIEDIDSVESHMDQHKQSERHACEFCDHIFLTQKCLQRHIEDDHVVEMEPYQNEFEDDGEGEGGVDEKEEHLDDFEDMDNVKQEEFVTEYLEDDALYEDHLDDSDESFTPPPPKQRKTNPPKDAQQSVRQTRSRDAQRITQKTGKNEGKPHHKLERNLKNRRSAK
# B2: Centrosome-associated zinc finger protein Cp190 (Drosophila melanogaster (Fruit fly)), Q24478 (parent)
# chain: B1 chain
# partner: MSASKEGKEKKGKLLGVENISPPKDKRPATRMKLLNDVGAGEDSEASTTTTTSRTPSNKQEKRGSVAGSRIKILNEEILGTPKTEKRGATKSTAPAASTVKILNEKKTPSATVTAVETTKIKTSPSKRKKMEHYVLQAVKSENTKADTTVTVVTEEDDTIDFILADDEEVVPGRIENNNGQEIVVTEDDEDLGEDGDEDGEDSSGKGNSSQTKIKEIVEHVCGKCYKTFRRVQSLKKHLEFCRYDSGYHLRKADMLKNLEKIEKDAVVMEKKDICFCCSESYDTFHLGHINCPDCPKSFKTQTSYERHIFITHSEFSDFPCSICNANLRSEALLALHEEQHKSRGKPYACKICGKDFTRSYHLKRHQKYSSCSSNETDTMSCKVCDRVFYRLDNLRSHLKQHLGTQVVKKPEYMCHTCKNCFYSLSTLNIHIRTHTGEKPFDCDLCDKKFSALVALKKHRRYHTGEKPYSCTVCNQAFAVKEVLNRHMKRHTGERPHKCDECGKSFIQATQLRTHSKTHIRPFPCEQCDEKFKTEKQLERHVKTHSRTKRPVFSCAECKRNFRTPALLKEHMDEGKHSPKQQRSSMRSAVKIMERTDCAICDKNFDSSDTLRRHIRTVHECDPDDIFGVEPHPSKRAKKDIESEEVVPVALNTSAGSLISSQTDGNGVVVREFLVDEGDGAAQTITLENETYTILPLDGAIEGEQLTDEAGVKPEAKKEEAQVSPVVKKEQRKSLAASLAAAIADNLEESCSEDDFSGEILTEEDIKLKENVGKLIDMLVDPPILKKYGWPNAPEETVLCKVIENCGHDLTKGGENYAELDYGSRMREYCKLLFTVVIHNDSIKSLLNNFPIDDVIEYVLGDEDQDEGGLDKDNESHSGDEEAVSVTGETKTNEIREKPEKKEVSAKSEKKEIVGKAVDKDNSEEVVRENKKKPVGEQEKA
# Variants of: B1
# Settings: with pita_drome pita
row,Variant,effect of a mutation on the interaction
1,F15A,with no effect
2,K19A,with no effect
3,V114A,with no effect

# Results, then the variant that gave them:
row,effect of a mutation on the interaction,Variant
1,with no effect,K117S
2,with no effect,L118A
3,with no effect,V114N

# Variants of: B1
# Settings: with pita_drome pita
# Remark: another data set of the same source
row,Variant,effect of a mutation on the interaction
1,F15A,disrupting interaction strength
2,K19A,disrupting interaction strength
3,V114A,disrupting interaction strength

# Next, values leading:
row,effect of a mutation on the interaction,Variant
1,disrupting interaction strength,K117S
2,disrupting interaction strength,V114N

# Variants of: B1
# Settings: with pita_drome pita
# Remark: another data set of the same source
row,effect of a mutation on the interaction,Variant
1,disrupting interaction strength,L118A
2,disrupting interaction strength,V7A

# Variants of: B1
# Settings: with pita_drome pita
# Remark: another data set of the same source
row,effect of a mutation on the interaction,Variant
1,with no effect,V7A

# Variants of: B2
# Settings: with suhw_drome su(Hw)
row,effect of a mutation on the interaction,Variant
1,with no effect,L118A
2,with no effect,F15A

# Variants of: B2
# Settings: with suhw_drome su(Hw)
# Remark: another data set of the same source
row,Variant,effect of a mutation on the interaction
1,V114A,disrupting interaction strength
2,K19A,disrupting interaction strength
3,F15A,disrupting interaction strength

# Further lines, results first:
row,effect of a mutation on the interaction,Variant
1,disrupting interaction strength,L118A
2,disrupting interaction strength,V114N
3,disrupting interaction strength,K117S

# Variants of: B2
# Settings: with suhw_drome su(Hw)
# Remark: another data set of the same source
row,Variant,effect of a mutation on the interaction
1,V114A,with no effect
2,K19A,with no effect
3,V7A,with no effect

# The next lines start with the values.
row,effect of a mutation on the interaction,Variant
1,with no effect,V114N
2,with no effect,K117S

# Variants of: B2
# Settings: with suhw_drome su(Hw)
# Remark: another data set of the same source
row,effect of a mutation on the interaction,Variant
1,disrupting interaction strength,V7A
